# According to ChEMBL document CHEMBL2074239, “Characterization of uremic toxin transport by organic anion transporters in the kidney” (Kidney Int, 2004):
# B1: Organic anion transporter 3 (Rattus norvegicus) (protein)
# chain: MTFSEILDRVGSMGPFQYLHVTLLALPVLGIANHNLLQIFTATTPVHHCRPPPNASIGPWVLPLDPNGKPEKCLRFVHLPNASLPNDTQRATEPCLDGWIYNSTRDTIVIEWDLVCSSNKLKEMAQSIFMAGILVGGPVIGELSDRFGRKPILTWSYLMLAASGSGAAFSPSLPVYMIFRFLCGCSISGISLSTVILNVEWVPTSMRAISSTSIGYCYTIGQFILSGLAYAIPQWRWLQLTSSAPFFIFSLLSWWVPESIRWLVLSGKYSKALKTLQRVATFNGKKEEGKKLTIEELKFNLQKDITSAKVKYGLSDLFRVSILRRVTFCLSLAWFSTGFAYYSLAMGVEEFGVNIYILQIIFGGVDIPAKFITILSLSYLGRRITQSFLLLLAGGAILALIFVPSEMQLLRTALAVFGKGCLSGSFSCLFLYTSELYPTVLRQTGMGISNVWARVGSMIAPLVKITGELQPFIPNVIFGTTALLGGSAAFFLLETLNRPLPETIEDIQNWHKQVQKTKQESEAEKASQIIPLKTGG
# B2: Organic anion transporter 3 (Homo sapiens) (protein)
# chain: MTFSEILDRVGSMGHFQFLHVAILGLPILNMANHNLLQIFTAATPVHHCRPPHNASTGPWVLPMGPNGKPERCLRFVHPPNASLPNDTQRAMEPCLDGWVYNSTKDSIVTEWDLVCNSNKLKEMAQSIFMAGILIGGLVLGDLSDRFGRRPILTCSYLLLAASGSGAAFSPTFPIYMVFRFLCGFGISGITLSTVILNVEWVPTRMRAIMSTALGYCYTFGQFILPGLAYAIPQWRWLQLTVSIPFFVFFLSSWWTPESIRWLVLSGKSSKALKILRRVAVFNGKKEEGERLSLEELKLNLQKEISLAKAKYTASDLFRIPMLRRMTFCLSLAWFATGFAYYSLAMGVEEFGVNLYILQIIFGGVDVPAKFITILSLSYLGRHTTQAAALLLAGGAILALTFVPLDLQTVRTVLAVFGKGCLSSSFSCLFLYTSELYPTVIRQTGMGVSNLWTRVGSMVSPLVKITGEVQPFIPNIIYGITALLGGSAALFLPETLNQPLPETIEDLENWSLRAKKPKQEPEVEKASQRIPLQPHGPGLGSS
# B3: Solute carrier family 22 member 6 (Rattus norvegicus) (protein)
# chain: MAFNDLLKQVGGVGRFQLIQVTMVVAPLLLMASHNTLQNFTAAIPPHHCRPPANANLSKDGGLEAWLPLDKQGQPESCLRFTSPQWGPPFYNGTEANGTRVTEPCIDGWVYDNSTFPSTIVTEWNLVCSHRAFRQLAQSLYMVGVLLGAMVFGYLADRLGRRKVLILNYLQTAVSGTCAAYAPNYTVYCVFRLLSGMSLASIAINCMTLNVEWMPIHTRAYVGTLIGYVYSLGQFLLAGIAYAVPHWRHLQLVVSVPFFIAFIYSWFFIESARWYSSSGRLDLTLRALQRVARINGKQEEGAKLSIEVLRTSLQKELTLSKGQASAMELLRCPTLRHLFLCLSMLWFATSFAYYGLVMDLQGFGVSMYLIQVIFGAVDLPAKFVCFLVINSMGRRPAQMASLLLAGICILVNGIIPKSHTIIRTSLAVLGKGCLASSFNCIFLYTGELYPTVIRQTGLGMGSTMARVGSIVSPLVSMTAEFYPSMPLFIFGAVPVVASAVTALLPETLGQPLPDTVQDLKSRSRGKQNQQQQEQQKQMMPLQASTQEKNGL
# B4: Solute carrier family 22 member 6 (Homo sapiens) (protein)
# chain: MAFNDLLQQVGGVGRFQQIQVTLVVLPLLLMASHNTLQNFTAAIPTHHCRPPADANLSKNGGLEVWLPRDRQGQPESCLRFTSPQWGLPFLNGTEANGTGATEPCTDGWIYDNSTFPSTIVTEWDLVCSHRALRQLAQSLYMVGVLLGAMVFGYLADRLGRRKVLILNYLQTAVSGTCAAFAPNFPIYCAFRLLSGMALAGISLNCMTLNVEWMPIHTRACVGTLIGYVYSLGQFLLAGVAYAVPHWRHLQLLVSAPFFAFFIYSWFFIESARWHSSSGRLDLTLRALQRVARINGKREEGAKLSMEVLRASLQKELTMGKGQASAMELLRCPTLRHLFLCLSMLWFATSFAYYGLVMDLQGFGVSIYLIQVIFGAVDLPAKLVGFLVINSLGRRPAQMAALLLAGICILLNGVIPQDQSIVRTSLAVLGKGCLAASFNCIFLYTGELYPTMIRQTGMGMGSTMARVGSIVSPLVSMTAELYPSMPLFIYGAVPVAASAVTVLLPETLGQPLPDTVQDLESRWAPTQKEAGIYPRKGKQTRQQQEHQKYMVPLQASAQEKNGL
# Key:
# [1] = molecular target: T1, Organic anion transporter 3 (Rattus norvegicus, UniProt Q9R1U7); test: TP_TRANSPORTER: inhibition of benzylpenicillin uptake in Oat3-expressing HEK293 cells; type: functional, cell-based
# T1 sequence (Q9R1U7 whole entry): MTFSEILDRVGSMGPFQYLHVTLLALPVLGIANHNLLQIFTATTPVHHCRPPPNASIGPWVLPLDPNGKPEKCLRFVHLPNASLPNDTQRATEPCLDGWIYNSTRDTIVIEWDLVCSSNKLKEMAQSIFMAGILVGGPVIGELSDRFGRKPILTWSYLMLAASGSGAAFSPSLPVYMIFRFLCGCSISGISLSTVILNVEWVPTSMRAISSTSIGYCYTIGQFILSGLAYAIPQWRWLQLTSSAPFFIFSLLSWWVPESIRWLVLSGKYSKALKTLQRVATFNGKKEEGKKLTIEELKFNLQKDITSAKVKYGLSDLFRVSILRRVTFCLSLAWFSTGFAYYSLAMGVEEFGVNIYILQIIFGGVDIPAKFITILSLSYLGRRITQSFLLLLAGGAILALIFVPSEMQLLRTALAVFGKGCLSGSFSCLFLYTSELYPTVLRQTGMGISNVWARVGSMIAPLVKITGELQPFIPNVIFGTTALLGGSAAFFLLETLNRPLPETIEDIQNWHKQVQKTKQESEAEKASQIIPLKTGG
# [2] = molecular target: T2, Organic anion transporter 3 (Homo sapiens, UniProt Q8TCC7); test: TP_TRANSPORTER: inhibition of benzylpenicillin uptake in OAT3-expressing HEK293 cells; type: functional, cell-based
# T2 sequence (Q8TCC7 whole entry): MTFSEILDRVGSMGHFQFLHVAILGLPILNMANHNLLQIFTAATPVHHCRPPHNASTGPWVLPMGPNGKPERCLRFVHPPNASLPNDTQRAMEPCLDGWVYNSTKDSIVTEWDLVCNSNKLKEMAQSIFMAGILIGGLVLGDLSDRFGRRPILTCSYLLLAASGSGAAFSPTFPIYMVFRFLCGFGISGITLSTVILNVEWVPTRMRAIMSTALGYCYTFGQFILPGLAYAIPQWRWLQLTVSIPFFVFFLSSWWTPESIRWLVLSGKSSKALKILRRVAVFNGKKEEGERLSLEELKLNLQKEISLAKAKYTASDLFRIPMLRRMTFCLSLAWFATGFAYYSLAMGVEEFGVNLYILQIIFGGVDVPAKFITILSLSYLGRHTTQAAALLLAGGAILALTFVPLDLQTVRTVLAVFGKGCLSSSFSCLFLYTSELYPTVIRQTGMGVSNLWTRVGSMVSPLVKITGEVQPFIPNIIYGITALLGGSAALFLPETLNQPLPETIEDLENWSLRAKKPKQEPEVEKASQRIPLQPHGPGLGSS
# [3] = substrate: O=S(=O)(O)Oc1c[nH]c2ccccc12; test: (§1) TP_TRANSPORTER: uptake in Oat3-expressing HEK293 cells; type: functional, cell-based
# [4] = substrate: CCCc1oc(CCC(=O)O)c(C(=O)O)c1C; test: as §1; type: functional, cell-based
# [5] = substrate: O=S(=O)(O)Oc1c[nH]c2ccccc12; test: (§2) TP_TRANSPORTER: uptake in OAT3-expressing HEK293 cells; type: functional, cell-based
# [6] = substrate: CCCc1oc(CCC(=O)O)c(C(=O)O)c1C; test: as §2; type: functional, cell-based
# [7] = substrate: O=C(O)CNC(=O)c1ccccc1; test: cells, lysate or membranes named
# [8] = substrate: CC(=O)Oc1c[nH]c2ccccc12; test: (§3) TP_TRANSPORTER: uptake in OAT1-expressing HEK293 cell; type: functional, cell-based
# [9] = substrate: CCCc1oc(CCC(=O)O)c(C(=O)O)c1C; test: as §3; type: functional, cell-based
molecule,measurement,setting,value
CC(=O)Oc1c[nH]c2ccccc12 [INDOLE ACETATE],Ki,[1],582 µM
same,Ki,[2],491 µM
O=C(O)CNC(=O)c1ccccc1 [HIPPURIC ACID],Ki,[1],19 µM
same,Ki,[2],31 µM
B1,Km,[3],174 µM
same,Km,[4],11 µM
B2,Km,[5],263 µM
same,Km,[6],27 µM
B3,Km,[7],28 µM
B4,Km,[8],14 µM
same,Km,[9],141 µM
